Measured values reported in article PMC9945446.

Target: DNMT1 (human) (UniProt P26358)
Assay: EMSA
Details: 50 mM Tris-HCl pH 7.5, 100 mM KCl (or LiCl), 2.5 mM MgCl2, 0.1 mM ZnCl2, 2 mM BME, 0.05% NP40, 5% glycerol, 0.1 mg/mL BSA, 0.1 mg/mL yeast tRNA, 30 C 1 h

DNMT1 (human), sequence (P26358 whole entry): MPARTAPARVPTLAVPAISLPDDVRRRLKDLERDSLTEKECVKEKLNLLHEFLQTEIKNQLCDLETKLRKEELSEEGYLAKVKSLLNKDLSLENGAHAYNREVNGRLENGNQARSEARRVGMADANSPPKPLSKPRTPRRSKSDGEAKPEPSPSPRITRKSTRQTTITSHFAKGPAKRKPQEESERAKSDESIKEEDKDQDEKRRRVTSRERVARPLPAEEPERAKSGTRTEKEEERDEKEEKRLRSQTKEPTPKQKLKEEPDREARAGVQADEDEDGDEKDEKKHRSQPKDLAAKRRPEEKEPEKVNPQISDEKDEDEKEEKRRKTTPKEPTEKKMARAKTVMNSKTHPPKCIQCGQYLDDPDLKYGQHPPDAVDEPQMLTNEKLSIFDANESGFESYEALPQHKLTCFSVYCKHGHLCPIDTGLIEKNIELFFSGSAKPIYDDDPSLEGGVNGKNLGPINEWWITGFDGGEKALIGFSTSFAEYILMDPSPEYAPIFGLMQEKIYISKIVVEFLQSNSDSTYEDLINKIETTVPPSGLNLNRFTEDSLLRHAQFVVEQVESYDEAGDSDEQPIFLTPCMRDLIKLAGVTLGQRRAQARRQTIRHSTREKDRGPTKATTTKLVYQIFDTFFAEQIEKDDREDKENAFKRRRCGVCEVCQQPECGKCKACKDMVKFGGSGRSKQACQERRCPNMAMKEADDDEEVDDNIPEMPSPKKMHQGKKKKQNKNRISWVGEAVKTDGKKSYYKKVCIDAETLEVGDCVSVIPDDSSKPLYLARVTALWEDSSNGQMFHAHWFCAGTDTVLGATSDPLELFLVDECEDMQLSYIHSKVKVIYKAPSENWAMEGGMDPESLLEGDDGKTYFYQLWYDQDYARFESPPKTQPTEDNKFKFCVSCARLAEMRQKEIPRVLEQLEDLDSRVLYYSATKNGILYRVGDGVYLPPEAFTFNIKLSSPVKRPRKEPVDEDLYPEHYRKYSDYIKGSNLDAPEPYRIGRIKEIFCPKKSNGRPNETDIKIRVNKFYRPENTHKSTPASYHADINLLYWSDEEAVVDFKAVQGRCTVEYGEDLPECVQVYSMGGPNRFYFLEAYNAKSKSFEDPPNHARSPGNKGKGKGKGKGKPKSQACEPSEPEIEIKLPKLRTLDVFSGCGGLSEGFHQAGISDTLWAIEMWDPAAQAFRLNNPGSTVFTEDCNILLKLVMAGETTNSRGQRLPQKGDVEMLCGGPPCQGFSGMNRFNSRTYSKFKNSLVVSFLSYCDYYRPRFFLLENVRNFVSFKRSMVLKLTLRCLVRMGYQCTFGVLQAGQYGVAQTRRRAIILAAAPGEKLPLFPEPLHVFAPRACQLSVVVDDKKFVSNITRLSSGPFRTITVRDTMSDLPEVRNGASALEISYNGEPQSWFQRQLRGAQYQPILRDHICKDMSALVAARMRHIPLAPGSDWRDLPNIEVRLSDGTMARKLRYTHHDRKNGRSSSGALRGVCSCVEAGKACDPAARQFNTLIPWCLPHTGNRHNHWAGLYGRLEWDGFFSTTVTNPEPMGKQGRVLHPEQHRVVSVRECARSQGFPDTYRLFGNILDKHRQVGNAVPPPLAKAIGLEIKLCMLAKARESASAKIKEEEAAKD

Sequence	binding signal (fold weaker than WT 3'UTR)	Kd [µM]
UUCCACCCUCCCACCACCCCUACUUCCAGCACCAGGAAUCCCCAACACACACCAACAUCACAUUUUUAACACAUCAAUCUACCCACUCACACACACAACACACAACACUUACGGCCUCAGCCAACACAAAGCCAUCACACAAGACUCGCUUAUCAACUAACAAUUUAACGAUCAAAUCACACAACACUUUACGCAUUCCAGAUUUUAAAAACUUUUUAUUACACAUUAUAUCAAAUCUACCACCAUACAAGCAGAAAUUAAGACUUUACAUAACUUUUAUACAUUACAAUAUUUCUUCAAAUAAAUCUCUCCUAUAAACCA [DNMT1 3'UTR GU mutant (all GU/UG to AC/CA)]	2	–
UUCUGCCCUCCCGUCACCCCUGUUUCUGGCACCAGGAAUCCCCAACAUGCACUGACACCACACUUUUAACAUGUCAAUCUGUCCGUUCACACACACAACACACAACACCCACAGCCUUGGCUGACAUGAAGCCACCACACAAGGUUCGCUUAUCAACUAAUGAUUUAGUGAUCAAAUUGUGCAGUACUUUGUGCAUUCUGGAUUUUAAAAGUUUUUUAUUAUGCAUUAUAUCAAAUCUACCACUGUAUGAGUGGAAAUUAAGACUUUAUGUAGUUUUUAUAUGUUGUAAUAUUUCUUCAAAUAAAUCUCUCCUAUAAACCA	3	–
UUCUGCCCUCCCGUCACCCCUGUUUCUGGCACCAGGAAUCCCCAACAUGCACUGAUGUUGUGUUUUUAACAUGUCAAUCUGUCCGUUCACAUGUGUGGUACAUGGUGUUUGUGGCCUUGGCUGACAUGAAGCUGUUGUGUGAGGUUCGCUUAUCAACUAAUGAUUUAGUGAUCAAAUUGUGCAGUACUUUGUGCAUUCUGGAUUUUAAAAGUUUUUUAUUAUGCAUUAUAUCAAAUCUACCACUGUAUGAGUGGAAAUUAAGACUUUAUGUAGUUUUUAUAUGUUGUAAUAUUUCUUCAAAUAAAUCUCUCCUAUAAACCA [DNMT1 3'UTR WT]	–	0.069
